Drawing on patent publication WO2008121160A2 (dated 2008), this text covers Kd for one molecule.

The term Kd denotes the free concentration of one partner at which half of the binding sites on the other are occupied at equilibrium, for simple one-to-one binding. The low end stands for tighter binding, the high end for weaker binding.

The test concerns the target T1, CD5-His-GST (human, UniProt P06127 25-372).
T1 construct: Expressed in 293T cells, purified by nickel chromatography; also called Recombinant CD5; Tagged CD5 antigen; not shown: C-terminal Factor Xa site; 6X His tag; GST protein
T1 sequence: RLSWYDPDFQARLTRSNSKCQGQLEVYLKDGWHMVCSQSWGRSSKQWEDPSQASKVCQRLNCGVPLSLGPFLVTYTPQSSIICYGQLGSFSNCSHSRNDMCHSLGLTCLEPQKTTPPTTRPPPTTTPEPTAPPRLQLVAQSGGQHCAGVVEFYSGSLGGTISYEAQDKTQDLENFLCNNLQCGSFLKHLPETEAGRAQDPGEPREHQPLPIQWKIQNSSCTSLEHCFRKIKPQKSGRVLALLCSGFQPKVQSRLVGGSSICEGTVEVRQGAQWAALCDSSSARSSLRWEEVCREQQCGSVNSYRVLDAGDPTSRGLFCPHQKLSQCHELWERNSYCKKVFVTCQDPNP
The test can be described thus: Biacore (SPR), global Langmuir fits. On the technique in general: Surface plasmon resonance follows binding to a sensor surface in real time, without labels.

B1: 5D7_H0L0_IgG1_WT (antibody, V domains shown)
VH: QVTLKESGPGILKPSQTLSLTCSFSGFSLSTSGMGVGWIRQPSGKGLEWLAHIWWDDDVYYNPSLKNQLTISKDASRDQVFLKITNLDTADTATYYCVRRRATGTGFDYWGQGTTLTVSS
VL: NIVMTQSHKFMSTSVGDRVSIACKASQDVGTAVAWYQQKPGQSPKLLIYWTSTRHTGVPDRFTGSGSGTDFTLTITNVQSEDLADYFCHQYNSYNTFGSGTRLELKR
notes: also called chimeric 5D7; H0L0 5D7
For the molecule B1, the Kd was ~1.5 nM.
